Experimental findings from publication PMC9714796 are described below.

This test has as its target T1, Transforming growth factor-β2 (TGF-β2).
T1 sequence (P61812 303-414, species assumed, looked up): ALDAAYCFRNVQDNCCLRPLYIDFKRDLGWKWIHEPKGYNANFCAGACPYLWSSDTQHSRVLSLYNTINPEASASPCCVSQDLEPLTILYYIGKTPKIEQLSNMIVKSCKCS

B1: TGF-βRII-Fc (muTGFbRII-mFc) (Fc fusion)
chain: IPPHVPKSVNSDVMASDNGGAVKLPQLCKFCDVRLSTCDNQKSCMSNCSITAICEKPHEVCVAVWRKNDKNITLETVCHDPKLTYHGFTLEDAASPKCVMKEKKRAGETFFMCACNMEECNDYIIFSEEYTTSSPDLLLVIIQ
Consider B1, for which the IC50 of TGF-βRII-Fc against TGF-β2 (480 pg/mL) signalling in A549 cells with the (CAGA)12 luciferase reporter is more than 88000.
